We go through 4 proteins from paper PMC4357238, “Catalytic surface radical in dye-decolorizing peroxidase: a computational, spectroscopic and site-directed mutagenesis study” (Biochemical Journal, 2015).

Common to all, as to assay type: biochemical, Auricularia auricula-judae
Substrate in data set [1]: Nc1c(N=Nc2ccc(S(=O)(=O)CCOS(=O)(=O)O)cc2)c(S(=O)(=O)O)cc2cc(S(=O)(=O)O)c(N=Nc3ccc(S(=O)(=O)CCOS(=O)(=O)O)cc3)c(O)c12
Kind of data set: steady-state kinetics, absorbance decrease, Michaelis-Menten fit. The conditions noted are these: single set of constants, 0.1 mM H2O2, 10 nM enzyme, 0.1 M tartrate pH 3, 25°C, pH 3.0. From the text:
(§1) steady-state kinetics, absorbance decrease, Michaelis-Menten fit on DyP (dye-decolorizing peroxidase; mature DyP-I) of Auricularia auricula-judae

Substrate in data set [2]: Nc1c(S(=O)(=O)O)cc(Nc2cccc(S(=O)(=O)CCOS(=O)(=O)O)c2)c2c1C(=O)c1ccccc1C2=O
Described as above. The conditions noted are these: 0.1 mM H2O2, 10 nM enzyme, 0.1 M tartrate pH 3.5, 25°C.
Text: as §1

Substrate in data set [3]: CCn1c(=NN=c2sc3cc(S(=O)(=O)O)ccc3n2CC)sc2cc(S(=O)(=O)O)ccc21
Kind of data set: steady-state kinetics, absorbance increase, Michaelis-Menten fit. The conditions noted are these: 0.1 mM H2O2, 10 nM enzyme, 0.1 M tartrate pH 3, 25°C. From the text:
(§2) steady-state kinetics, absorbance increase, Michaelis-Menten fit on DyP (dye-decolorizing peroxidase; mature DyP-I) of Auricularia auricula-judae

Substrate in data set [4]: COc1cccc(OC)c1O
The data set is described as above. The conditions noted are these: 0.1 mM H2O2, 10 nM enzyme, 0.1 M tartrate pH 3, 25°C.
Text: as §2

Substrate in data set [5]: COc1ccc(CO)cc1OC
Described as above. The conditions noted are these: single set of constants, 0.1 mM H2O2, 100 nM enzyme, 0.1 M tartrate pH 2.5, 25°C, pH 2.5.
Text: as §2

The mark [6] stands for this setting: single set (high-turnover site, haem channel blocked), pH 3.5.
Where [7] appears, read: single set (high-turnover site).
Where [8] appears, read: two-site kinetics: high-affinity low-turnover site.
The mark [9] stands for this setting: two-site kinetics: high-affinity low-turnover site, pH 3.5.
[10] abbreviates: single set (low-turnover site), pH 3.5.
Setting [11] is: two-site kinetics: high-affinity low-turnover site, pH 3.0.
Setting [12] is: single set (low-turnover site), pH 3.0.

Numbering of substitutions follows the chain as printed. In names and notes the source's numbering stands.

B1: DyP (dye-decolorizing peroxidase; mature DyP-I) of Auricularia auricula-judae (Auricularia auricula-judae; G230L) (protein)
chain: ATSLNTDDIQGDILVGMHKQKQLFYFFAINDPATFKTHLASDIAPVVASVTQLSNVATQPLVALNIAFSNTGLLALGVTDNLGDSLFANGQAKDATSFKESTSSWVPQFAGTGIHGVIILASDTTDLIDQQVASIESTFGSSISKLYSLSASIRPGNEAGHEMFGFLDLIAQPAINGFNTPLPGQNIVDAGVIITGATNDPITRPSWAVGGSFLAFRQLEQLVPEFNKYLLDNAPAGSGSLQARADLLGARMVGRWKSGAPIDLTPTADDPALGADAQRNNNFTYSHAGFDLGSDQSHCPFSAHIRKTRPRADLGGSLTPPNLSAGANSIMRSGIPYGPEVTSAESASNTTTQERGLAFVAYQAQLSQGFHFLQQTWADNANFPPGKTPATVGLDPIIGQNNGQPRVVNGLLPSNSSASLSIPQFVVSHGGEYFFSPPISAIGGRLSA
notes: variants made on the same plasmid
The term Km denotes the substrate concentration at which the rate is half of its maximum. The term kcat denotes the number of substrate molecules converted per active site and unit of time at saturation. The term kcat/Km denotes the second-order rate constant that governs catalysis at low substrate concentration. Take B1: the Michaelis-Menten constant (Km) in data set [1] is 5.8 ± 0.6 µM; in data set [2] (setting [6]), 10 ± 3 µM; in data set [3] (setting [7]), 25 ± 2 µM; in data set [4] (setting [8]) it was 6.0 ± 0.4 µM. The kcat in data set [1] amounted to 1.2 ± 0.1 s⁻¹; in data set [2] (setting [6]) it was 106 ± 9 s⁻¹; in data set [3] (setting [7]), 96 ± 2 s⁻¹; in data set [4] (setting [8]), 9.9 ± 0.2 s⁻¹. Moreover, the kcat/Km in data set [1] is 217 ± 13 s⁻¹ mM⁻¹; in data set [2] (setting [6]) it was 12400 ± 3000 s⁻¹ mM⁻¹; in data set [3] (setting [7]), 3770 ± 270 s⁻¹ mM⁻¹; in data set [4] (setting [8]), 1600 ± 70 s⁻¹ mM⁻¹.

B2: DyP (dye-decolorizing peroxidase; mature DyP-I) of Auricularia auricula-judae (Auricularia auricula-judae) (protein)
chain: B1 chain with L169G
notes: as for B1
In the case of B2, the Km was found to be 15.6 ± 2.0 µM in data set [1], 14.0 ± 2.0 µM in data set [2] (setting [9]), 3.1 ± 1.1 µM in data set [3] (setting [8]) and 6.0 ± 0.5 µM in data set [4] (setting [8]). Also, the kcat came to 4.8 ± 0.2 s⁻¹ in data set [1], 32.0 ± 3.0 s⁻¹ in data set [2] (setting [9]), 7.4 ± 1.4 s⁻¹ in data set [3] (setting [8]) and 8.0 ± 0.2 s⁻¹ in data set [4] (setting [8]). The kcat/Km is 310 ± 20 s⁻¹ mM⁻¹ in data set [1], 2230 ± 200 s⁻¹ mM⁻¹ in data set [2] (setting [9]), 2370 ± 420 s⁻¹ mM⁻¹ in data set [3] (setting [8]) and 1350 ± 100 s⁻¹ mM⁻¹ in data set [4] (setting [8]).

B3: DyP (dye-decolorizing peroxidase; mature DyP-I) of Auricularia auricula-judae (Auricularia auricula-judae; Y398S) (protein)
chain: B1 chain with L169G, Y337S
notes: as for B1
As for B3, in data set [2] (setting [8]), the Km was determined as 7.4 ± 2.3 µM, the turnover number (kcat) stood at 26.0 ± 1.9 s⁻¹ and the catalytic efficiency (kcat/Km) turned out to be 3370 ± 350 s⁻¹ mM⁻¹.

B4: DyP (dye-decolorizing peroxidase; mature DyP-I) of Auricularia auricula-judae (Auricularia auricula-judae; W438S) (protein)
chain: B1 chain with L169G, W377S
notes: as for B1
On to B4, for which the Km was 10.6 ± 1.0 µM in data set [1]; 3.9 ± 0.6 µM in data set [2] (setting [10]); 30.0 ± 0.5 µM in data set [3] (setting [11]); 7.36 ± 1.27 mM in data set [5]; 3560 ± 250 µM in data set [4] (setting [12]). The turnover number (kcat) in data set [1] amounted to 0.70 ± 0.02 s⁻¹; in data set [2] (setting [10]), 8.9 ± 0.6 s⁻¹; in data set [3] (setting [11]), 14.0 ± 1.0 s⁻¹; in data set [5], 0.23 ± 0.01 s⁻¹; in data set [4] (setting [12]), 6.4 ± 0.1 s⁻¹. In addition, the kcat/Km in data set [1] was determined as 68 ± 4 s⁻¹ mM⁻¹; in data set [2] (setting [10]), 2240 ± 240 s⁻¹ mM⁻¹; in data set [3] (setting [11]) it was 472 ± 61 s⁻¹ mM⁻¹; in data set [5], 0.032 ± 0.003 s⁻¹ mM⁻¹; in data set [4] (setting [12]), 1.8 ± 0.1 s⁻¹ mM⁻¹.
